# Results taken from IntAct's records for PubMed 20863830.
# B1: Phospholipid-transporting ATPase ABCA3 (Homo sapiens), Q99758 (parent)
# chain: MAVLRQLALLLWKNYTLQKRKVLVTVLELFLPLLFSGILIWLRLKIQSENVPNATIYPGQSIQELPLFFTFPPPGDTWELAYIPSHSDAAKTVTETVRRALVINMRVRGFPSEKDFEDYIRYDNCSSSVLAAVVFEHPFNHSKEPLPLAVKYHLRFSYTRRNYMWTQTGSFFLKETEGWHTTSLFPLFPNPGPREPTSPDGGEPGYIREGFLAVQHAVDRAIMEYHADAATRQLFQRLTVTIKRFPYPPFIADPFLVAIQYQLPLLLLLSFTYTALTIARAVVQEKERRLKEYMRMMGLSSWLHWSAWFLLFFLFLLIAASFMTLLFCVKVKPNVAVLSRSDPSLVLAFLLCFAISTISFSFMVSTFFSKANMAAAFGGFLYFFTYIPYFFVAPRYNWMTLSQKLCSCLLSNVAMAMGAQLIGKFEAKGMGIQWRDLLSPVNVDDDFCFGQVLGMLLLDSVLYGLVTWYMEAVFPGQFGVPQPWYFFIMPSYWCGKPRAVAGKEEEDSDPEKALRNEYFEAEPEDLVAGIKIKHLSKVFRVGNKDRAAVRDLNLNLYEGQITVLLGHNGAGKTTTLSMLTGLFPPTSGRAYISGYEISQDMVQIRKSLGLCPQHDILFDNLTVAEHLYFYAQLKGLSRQKCPEEVKQMLHIIGLEDKWNSRSRFLSGGMRRKLSIGIALIAGSKVLILDEPTSGMDAISRRAIWDLLQRQKSDRTIVLTTHFMDEADLLGDRIAIMAKGELQCCGSSLFLKQKYGAGYHMTLVKEPHCNPEDISQLVHHHVPNATLESSAGAELSFILPRESTHRFEGLFAKLEKKQKELGIASFGASITTMEEVFLRVGKLVDSSMDIQAIQLPALQYQHERRASDWAVDSNLCGAMDPSDGIGALIEEERTAVKLNTGLALHCQQFWAMFLKKAAYSWREWKMVAAQVLVPLTCVTLALLAINYSSELFDDPMLRLTLGEYGRTVVPFSVPGTSQLGQQLSEHLKDALQAEGQEPREVLGDLEEFLIFRASVEGGGFNERCLVAASFRDVGERTVVNALFNNQAYHSPATALAVVDNLLFKLLCGPHASIVVSNFPQPRSALQAAKDQFNEGRKGFDIALNLLFAMAFLASTFSILAVSERAVQAKHVQFVSGVHVASFWLSALLWDLISFLIPSLLLLVVFKAFDVRAFTRDGHMADTLLLLLLYGWAIIPLMYLMNFFFLGAATAYTRLTIFNILSGIATFLMVTIMRIPAVKLEELSKTLDHVFLVLPNHCLGMAVSSFYENYETRRYCTSSEVAAHYCKKYNIQYQENFYAWSAPGVGRFVASMAASGCAYLILLFLIETNLLQRLRGILCALRRRRTLTELYTRMPVLPEDQDVADERTRILAPSPDSLLHTPLIIKELSKVYEQRVPLLAVDRLSLAVQKGECFGLLGFNGAGKTTTFKMLTGEESLTSGDAFVGGHRISSDVGKVRQRIGYCPQFDALLDHMTGREMLVMYARLRGIPERHIGACVENTLRGLLLEPHANKLVRTYSGGNKRKLSTGIALIGEPAVIFLDEPSTGMDPVARRLLWDTVARARESGKAIIITSHSMEECEALCTRLAIMVQGQFKCLGSPQHLKSKFGSGYSLRAKVQSEGQQEALEEFKAFVDLTFPGSVLEDEHQGMVHYHLPGRDLSWAKVFGILEKAKEKYGVDDYSVSQISLEQVFLSFAHLQPPTAEEGR
# partner: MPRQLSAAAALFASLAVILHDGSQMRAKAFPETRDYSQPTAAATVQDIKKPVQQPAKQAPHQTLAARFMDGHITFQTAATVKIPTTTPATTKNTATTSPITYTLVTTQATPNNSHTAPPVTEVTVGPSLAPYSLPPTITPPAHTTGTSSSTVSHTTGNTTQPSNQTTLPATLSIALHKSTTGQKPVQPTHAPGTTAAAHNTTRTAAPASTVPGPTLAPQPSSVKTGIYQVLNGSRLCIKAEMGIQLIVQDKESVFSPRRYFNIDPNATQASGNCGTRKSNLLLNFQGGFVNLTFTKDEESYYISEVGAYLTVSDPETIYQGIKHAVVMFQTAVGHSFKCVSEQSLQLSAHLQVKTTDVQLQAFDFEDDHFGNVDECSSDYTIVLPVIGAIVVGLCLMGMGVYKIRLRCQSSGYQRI
# B2: Phospholipid-transporting ATPase ABCA3 (Homo sapiens), Q99758 (parent)
# chain: B1 chain
# partner: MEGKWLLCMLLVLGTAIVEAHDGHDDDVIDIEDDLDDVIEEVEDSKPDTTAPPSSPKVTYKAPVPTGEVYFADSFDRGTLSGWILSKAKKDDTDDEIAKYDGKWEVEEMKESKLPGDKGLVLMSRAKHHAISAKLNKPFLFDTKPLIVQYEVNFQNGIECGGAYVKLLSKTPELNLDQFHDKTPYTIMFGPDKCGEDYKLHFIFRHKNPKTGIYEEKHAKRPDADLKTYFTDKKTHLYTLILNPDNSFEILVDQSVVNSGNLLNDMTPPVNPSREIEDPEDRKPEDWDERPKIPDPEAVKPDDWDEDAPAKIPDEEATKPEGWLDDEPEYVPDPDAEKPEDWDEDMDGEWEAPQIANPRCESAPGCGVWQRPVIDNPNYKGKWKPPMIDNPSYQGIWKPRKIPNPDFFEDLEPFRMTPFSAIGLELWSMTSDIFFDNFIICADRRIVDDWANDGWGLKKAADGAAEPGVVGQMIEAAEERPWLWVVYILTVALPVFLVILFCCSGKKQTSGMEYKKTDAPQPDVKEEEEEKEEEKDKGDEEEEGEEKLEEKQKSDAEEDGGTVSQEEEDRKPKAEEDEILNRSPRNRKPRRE
# Variants of: B1
# Conditions: with lamp3_human LAMP3, Q9UQV4
row,effect of a mutation on the interaction,Variant
1,disrupting interaction,Q215K

# Variants of: B2
# Conditions: with calx_human CANX
row,effect of a mutation on the interaction,Variant
1,increasing interaction,Q215K
